Data from IntAct's records for PubMed 21209940.

B1: Myoblast determination protein 1 (Mus musculus), P10085 (parent)
chain: MELLSPPLRDIDLTGPDGSLCSFETADDFYDDPCFDSPDLRFFEDLDPRLVHMGALLKPEEHAHFPTAVHPGPGAREDEHVRAPSGHHQAGRCLLWACKACKRKTTNADRRKAATMRERRRLSKVNEAFETLKRCTSSNPNQRLPKVEILRNAIRYIEGLQALLRDQDAAPPGAAAFYAPGPLPPGRGSEHYSGDSDASSPRSNCSDGMMDYSGPPSGPRRQNGYDTAYYSEAARESRPGKSAAVSSLDCLSSIVERISTDSPAAPALLLADAPPESPPGPPEGASLSDTEQGTQTPSPDAAPQCPAGSNPNAIYQVL
partner: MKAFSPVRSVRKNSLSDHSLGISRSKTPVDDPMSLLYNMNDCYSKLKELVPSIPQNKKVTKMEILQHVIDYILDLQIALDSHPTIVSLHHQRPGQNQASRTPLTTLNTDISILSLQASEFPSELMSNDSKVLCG
B2: DNA-binding protein inhibitor ID-2 (Mus musculus), P41136 (parent)
chain: B1 partner

Variants of: B1
Conditions: with id2_mouse Id2, P41136

Row | Variant | effect of a mutation on the interaction
1 | I157K | disrupting interaction
2 | I149K | disrupting interaction
3 | L150K | decreasing interaction
4 | Q161K | decreasing interaction
5 | L160K | decreasing interaction

Variants of: B2
Conditions: with myod1_mouse Myod1, P10085

Row | Variant | effect of a mutation on the interaction
6 | V86K | decreasing interaction
7 | L124K | decreasing interaction
